B1: membrane type serine protease 1 (MT-SP1) (protein)
chain: VVGGTDADEGEWPWQVSLHALGQGHICGASLISPNWLVSAAHCYIDDRGFRYSDPTQWTAFLGLHDQSQRSAPGVQERRLKRIISHPFFNDFTFDYDIALLELEKPAEYSSMVRPICLPDASHVFPAGKAIWVTGWGHTQYGGTGALILQKGEIRVINQTTCENLLPQQITPRMMCVGFLSGGVDSCQGDSGGPLSSVEADGRIFQAGVVSWGDGCAQRNKPGVYTRLPLFRDWIKENTGV
B2: MMP2 (protein)
chain: YNFFPRKPKWDKNQITYRIIGYTPDLDPETVDDAFARAFQVWSDVTPLRFSRIHDGEADIMINFGRWEHGDGYPFDGKDGLLAHAFAPGTGVGGDSHFDDDELWTLGEGQVVRVKYGNADGEYCKFPFLFNGKEYNSCTDTGRSDGFLWCSTTYNFEKDGKYGFCPHEALFTMGGNAEGQPCKFPFRFQGTSYDSCTTEGRTDGYRWCGTTEDYDRDKKYGFCPETAMSTVGGNSEGAPCVFPFTFLGNKYESCTSAGRSDGKMWCATTANYDDDRKWGFCPDQGYSLFLVAAHEFGHAMGLEHSQDPGALMAPIYTYTKNFRLSQDDIKGIQELYGASPDIDLGTGPTPTLGPVTPEICKQDIVFDGIAQIRGEIFFFKDRFIWRTVTPRDKPMGPLLVATFWPELPEKIDAVYEAPQEEKAVFFAGNEYWIYSASTLERGYPKPLTSLGLPPDVQRVDAAFNWSKNKKTYIFAGDKFWRYNEVKKKMDPGFPKLIADAWNAIPDNLDAVVDLQGGGHSYFFKGAYYLKLENQSLKSVKFGSIKSDWLGC

How the values were obtained:
[1] = biological target: (MCA)-His-Gln-Ser-Arg-Pro-Trp-Gly-Leu-Gly-Ser-Lys (DNP)-D-Arg (SEQ ID NO: 660)
[2] = biological target: (MCA)-His-Gln-Ser-Arg-Ser-Ala-Ile-Ala-Leu-Gly-Ser-Lys (DNP)-D-Arg (SEQ ID NO: 655)
[3] = biological target: (MCA)-His-Gln-Ser-Arg-Ser-Ala-Ile-Ala-Leu-X1-Gly-Lys (DNP)-D-Arg (SEQ ID NO: 654) where X1 is Y
[4] = biological target: (MCA)-His-Gln-Ser-Arg-Ser-Ala-Ile-Ala-Leu-X1-X2-Lys (DNP)-D-Arg (SEQ ID NO: 653) where X1 is Y and X2 is A
[5] = biological target: (MCA)-His-Gln-Ser-Arg-Ser-Gly-Pro-Trp-Gly-Leu-X1-Lys (DNP)-D-Arg (SEQ ID NO: 659) where X1 is absent
[6] = biological target: (MCA)-His-Gln-Ser-Arg-Ser-Pro-Trp-Gly-Gly-Ser-Lys (DNP)-D-Arg (SEQ ID NO: 661)
[7] = biological target: (MCA)-His-Gln-Ser-Arg-Ser-Pro-Trp-Gly-Leu-Gly-Lys (DNP)-D-Arg (SEQ ID NO: 665)
[8] = biological target: (MCA)-Ser-Pro-Trp-Gly-Leu-His-Gln-Ser-Arg-Gly-Lys (DNP)-D-Arg (SEQ ID NO: 663)
[9] = biological target: (MCA)-Ser-Pro-Trp-Gly-Leu-His-Gln-Ser-Arg-Ser-Lys (DNP)-D-Arg (SEQ ID NO: 657)
[10] = biological target: (MCA)-Ser-Pro-Trp-Gly-Leu-His-Gln-Ser-Lys-Ser-Lys (DNP)-D-Arg (SEQ ID NO: 664)
[11] = biological target: D-Arg-Lys (DNP)-Ala-Ile-Ala-Leu-His-Gln-Ser-Arg-Ser-Lys (MCA)-D-Arg (SEQ ID NO: 658)
[12] = biological target: peptide probe with CM … (SEQ ID NO: 641)
[13] = biological target: peptide probe with CM … (SEQ ID NO: 642)
[14] = biological target: peptide probe with CM … (SEQ ID NO: 643)
[15] = biological target: peptide probe with CM … (SEQ ID NO: 644)
[16] = biological target: peptide probe with CM … (SEQ ID NO: 645)
[17] = biological target: peptide probe with CM … (SEQ ID NO: 646)
[18] = biological target: peptide probe with CM … (SEQ ID NO: 647)
[19] = biological target: peptide probe with CM … (SEQ ID NO: 639)
[20] = biological target: peptide probe with CM … (SEQ ID NO: 648)
[21] = biological target: peptide probe with CM … (SEQ ID NO: 649)
[22] = biological target: peptide probe with CM … (SEQ ID NO: 650)

| Protein | Probe Cleavage (pM/s) [1] [pM/s] | Probe Cleavage (pM/s) [2] | Probe Cleavage Kcat/KM [2] [M⁻¹ s⁻¹] | Probe Cleavage (pM/s) [3] [pM/s] | Probe Cleavage Kcat/KM [3] [M⁻¹ s⁻¹] | Probe Cleavage (pM/s) [4] [pM/s] | Probe Cleavage Kcat/KM [4] [M⁻¹ s⁻¹] | Probe Cleavage (pM/s) [5] [pM/s] | Probe Cleavage (pM/s) [6] [pM/s] | Probe Cleavage (pM/s) [7] [pM/s] | Probe Cleavage (pM/s) [8] [pM/s] | Probe Cleavage (pM/s) [9] [pM/s] | Probe Cleavage Kcat/KM [9] [M⁻¹ s⁻¹] | Probe Cleavage (pM/s) [10] [pM/s] | Probe Cleavage (pM/s) [11] [pM/s] | Probe Cleavage Kcat/KM [11] [M⁻¹ s⁻¹] | Probe Cleavage (pM/s) [12] | Probe Cleavage (pM/s) [13] [pM/s] | Probe Cleavage (pM/s) [14] [pM/s] | Probe Cleavage (pM/s) [15] [pM/s] | also measured |
| --- | --- | --- | --- | --- | --- | --- | --- | --- | --- | --- | --- | --- | --- | --- | --- | --- | --- | --- | --- | --- | --- |
| B1 | 32 | Above limit of quantitation | 510000 | 1960 | 790000 | 1750 | 630000 | 9930 | 3470 | 1210 | 540 | 1280 | 28000 | 1630 | 11500 | 55000 | Above limit of quantitation | 1860 | 11300 | 8 | Probe Cleavage Kcat/KM [7]: 35000 M⁻¹ s⁻¹; Probe Cleavage (pM/s) [16]: 7330 pM/s; Probe Cleavage (pM/s) [17]: Above limit of quantitation; Probe Cleavage (pM/s) [18]: Above limit of quantitation; Probe Cleavage (pM/s) [19]: 10800 pM/s; Probe Cleavage (pM/s) [20]: 4120 pM/s; Probe Cleavage (pM/s) [21]: 7780 pM/s; Probe Cleavage (pM/s) [22]: 7920 pM/s |
| B2 | 4020 | 76.9 pM/s | 4900 | 434 | 67000 | 468 | 29000 | 94.8 | 61.6 | 44.2 | 6840 | 2550 | 54000 | 6640 | 4220 | 17000 | 726 pM/s | 692 | 623 | 696 | Probe Cleavage (pM/s) [16]: 594 pM/s; Probe Cleavage (pM/s) [17]: 1390 pM/s; Probe Cleavage (pM/s) [18]: 65.4 pM/s; Probe Cleavage (pM/s) [19]: 17600 pM/s; Probe Cleavage (pM/s) [20]: 488 pM/s; Probe Cleavage (pM/s) [21]: 61.1 pM/s; Probe Cleavage (pM/s) [22]: 410 pM/s |
